Holding throughout (assay): cell ELISA: soluble GPVI-Fc (0.45-1000 nM) competing with GPVI-U937 cells for 100 nM scFv
The target of test [1] is T1, scFv clone C3.
T1 construct: human scFv from a phage display library

For test [2], the target named is T2, scFv clone B4.
T2 construct: human scFv from a phage display library

For test [3], the target named is T3, scFv clone A10.
T3 construct: human scFv from a phage display library; detected through an HA tag, purified through a polyHis tail

B1: soluble human GPVI-Fc (extracellular domain of GPVI fused to Fc; hGPVI-human IgG1Fc) (Fc fusion)
chain: QSGPLPKPSLQALPSSLVPLEKPVTLRCQGPPGVDLYRLEKLSSSRYQDQAVLFIPAMKRSLAGRYRCSYQNGSLWSLPSDQLELVATGVFAKPSLSAQPGPAVSSGGDVTLQCQTRYGFDQFALYKEGDPAPYKNPERWYRASFPIITVTAAHSGTYRCYSFSSRDPYLWSAPSDPLELVVTGTSVTPSRLPTEPPSSVAEFSEATAELTVSFTNKVFTTETSRSITTSPKESDSPAGPARQYYTKGN
notes: also called hGPVI-hIgG1Fc; hrGPVI; not shown: human IgG1 Fc
In the case of B1, the half-maximal inhibitory concentration (IC50) (usually the concentration needed to halve the response being measured) in test [1] was found to be 38 nM; in test [2] it was 5 nM; in test [3], 4.5 nM.

The record behind these values is patent publication US6989144.
